Test results reported in paper PMC4255277.
Like-named read-outs stand apart in the source and are kept apart here.

Assays:
[1] = molecular target: melanocortin-4 receptor (zebrafish) (zebrafish) (UniProt B0V1P1); assay: competition binding assay on cells
[2] = molecular target: melanocortin-4 receptor (zebrafish) (zebrafish) (UniProt B0V1P1); assay: competition binding assay on cells; remark: listed apart in the source

Chain of UniProt B0V1P1 (B0V1P1 whole entry): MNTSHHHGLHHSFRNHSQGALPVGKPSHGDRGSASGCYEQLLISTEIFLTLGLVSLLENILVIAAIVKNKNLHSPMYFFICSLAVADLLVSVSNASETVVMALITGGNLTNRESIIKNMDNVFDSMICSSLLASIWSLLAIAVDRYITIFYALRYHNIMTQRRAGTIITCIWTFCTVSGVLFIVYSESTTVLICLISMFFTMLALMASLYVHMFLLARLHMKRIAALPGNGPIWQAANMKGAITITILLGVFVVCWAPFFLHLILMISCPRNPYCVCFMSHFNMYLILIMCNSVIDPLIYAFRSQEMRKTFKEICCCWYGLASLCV

- IC50 [1]: 50 nM
- IC50 [2]: 45 nM
Substance: α–melanocyte-stimulating hormone (peptide)
